Test results taken from patent US4137307A, “Process for preparing haptoglobin aqueous solution using strong anion exchanger” (The Green Cross Corporation, priority 1973, dated 1979).
Values belong to the compound of their own block, whether it stands above or below them.

Experiments:
[1] = tested on: arterial blood pressure of the dog; test: Hypotensive activity (arterial blood pressure of the dog before and after administration); assay type: in vivo; conditions: less than 10% evaluated as hypotensive activity negative
Procedure: (§1) The acute toxicity was represented by LD50 measured when the aqueous haptoglobin solution was intravenously injected into mice and rats. The hypotensive activity was represented by the ratio of arterial blood pressure of the dog before and after administration of haptoglobin solution. A ratio less than 10% was evaluated as hypotensive activity negative. The measurement of HB-Ag was made by the radioimmunoassay method (Sadatake Kato et al.: Japanese Patent Publication No. 49,919/73) using Ausria-125 kit, products of Abbott Co.

hemoglobin [2] = test: Hemoglobin-binding capacity of haptoglobin (polyacrylamide gel thin layer electrophoresis, benzidine staining); conditions: maximum addition of hemoglobin with no free hemoglobin observed
Mice = test: Acute toxicity, LD50, intravenous, mice; assay type: in vivo
Procedure: as §1

Rats = test: Acute toxicity, LD50, intravenous, rats; assay type: in vivo
Procedure: as §1

HB-Ag = HB-Ag measurement by radioimmunoassay (Ausria-125 kit); set-up: species or system hepatitis B virus
Procedure: as §1

hemoglobin [3] = test: Residual hemoglobin-binding capacity of haptoglobin after heat treatment (60° C., 10 hours); assay type: physicochemical; conditions: for Residual hemoglobin-binding capacity of haptoglobin after heat treatment: haptoglobin solution of Example 1, 60° C., 10 hours
Procedure: In this example, the relation between the amount used and the stabilizing effects of various stabilizers was examined by measuring the residual hemoglobin-binding capacity of haptoglobin after heat treatment.
The stabilizers used were glycine and alanine as neutral amino acids, and mannitol and glucose as saccharides. Each of the said stabilizers was dissolved in haptoglobin solution in such proportions as shown in Table 7 and then heated at 60° C. for 10 hours. Thereafter, the hemoglobin-binding capacity of the haptoglobin of the solution was measured, and the ratio thereof to the value before heat treatment represented by percentage.
For comparison, the haptoglobin solution without addition of stabilizer was subjected to the same heat treatment as above, and the hemoglobin-binding capacity of haptoglobin of the solution was measured.

hemoglobin [4] = test: as above; assay type: physicochemical; conditions: dialysate of Example 3
rabbits [5] = test: Survival of rabbits after haptoglobin and/or hemoglobin administration; assay type: in vivo; conditions: fourth day, 10 tested
From the text: (§2) Thirty mature rabbits of body weight ranging from 2.3 to 2.9 kg were equally divided into 3 groups (10 rabbits per group), and continuously administered with haptoglobin and/or hemoglobin, and then the survival of the rabbits was observed. At the end of the observation, the survived rabbits were anatomized, and various organs thereof were subjected to histopathological examination.
(§3) A 5% solution of haptoglobin in isotonic sodium chloride solution prepared according to the present invention was continuously administered drop-wise intravenously once a day at a dose of 0.8 g/kg (body weight).
(§4) A 10% solution of hemoglobin in isotonic sodium chloride solution isolated from red blood cells of the rabbit was continuously administered drop-wise intraveneously once a day at a dose of 0.4 g/kg (body weight).
(§5) Hemoglobin and then the haptoglobin of the invention were administered in the same manner and dose in the case of both the first and the second groups.
On the fourth day of administration, the survival of the rabbits of each group was examined.

rabbits [6] = test: Histopathological examination of rabbits after haptoglobin and/or hemoglobin administration; assay type: in vivo
From the text: as §2, §3, §4, §5

patient = test: Clinical application to a patient (pelvis fracture, urethra rupture and bleeding shock); assay type: in vivo, human
From the text: An example, in which the haptoglobin prepared in Example 2 was clinically applied to a patient, is illustrated below.
The patient was a person, who had been severely stricken on the left waist with lumber that had fallen down during their work and had been sent to hospital as an emergency case. The diagnosis was pelvis fracture, urethra rupture and bleeding shock. Immediately after hospitalization, the patient was subjected to an operation for urinary tract reconstruction. During the operation, the total amount of bleeding was 7,500 ml, the total amount of blood transfused was 4,200 ml, and the total artificial expander transfused was 4,200 ml. […] The clinical progress of the patient after the operation is shown in the accompanying drawing. […] At this stage, 250 ml of a 5% solution of the haptoglobin prepared according to the present invention in isotonic sodium chloride solution was administered to the patient drop-wise intravenously.

mouse or rat and humans = test: Toxicity / adverse effects on injection of the aqueous solution of haptoglobin; assay type: in vivo, human
[7] = First group: haptoglobin 0.8 g/kg i.v. once a day
[8] = Third group: hemoglobin 0.4 g/kg then haptoglobin 0.8 g/kg i.v. once a day
[9] = 250 ml of a 5% solution, drop-wise intravenously
[10] = Second group: hemoglobin 0.4 g/kg i.v. once a day

Compound: Example 3 before treatment: haptoglobin solution of Example 3 before the treatment with the ion exchanger
Hypotensive activity [1]: 24.0%

Compound: Experiment 5: haptoglobin solution by the method of Example 1 with CM-Sephadex, non-adsorbed fraction, 0.05 M phosphate buffer (pH 7.0)
Hemoglobin-binding capacity (hemoglobin [2]): 0.62 mg hemoglobin/mg haptoglobin
LD50 (Mice): ≥ 11700 mg/kg
LD50 (Rats): ≥ 10500 mg/kg
Hypotensive activity [1]: 9.0%
HB-Ag (HB-Ag): Negative

Compound: Example 1 before treatment: haptoglobin solution of Example 1 before the treatment with the ion exchanger
Hypotensive activity [1]: 18%

Residual hemoglobin-binding capacity of haptoglobin after heat treatment (hemoglobin [3]; stabilizer amount 15%): 45%
Residual hemoglobin-binding capacity of haptoglobin after heat treatment (hemoglobin [3]; stabilizer amount 20%): 60%
Residual hemoglobin-binding capacity of haptoglobin after heat treatment (hemoglobin [4]; stabilizer amount 20%): 72%
Compound: OC[C@H]1OC(O)[C@H](O)[C@@H](O)[C@@H]1O (some centres unmarked) [Glucose, glucose]

Compound: haptoglobin
Hemoglobin-binding capacity after heat treatment in the absence of stabilizer (hemoglobin [3]; absence of stabilizer): lost its hemoglobin-binding capacity
Activity of haptoglobin after heat treatment (hemoglobin [3]; aqueous solution without stabilizer, 60° C. for 10 hours): substantially nil
Residual hemoglobin-binding capacity of haptoglobin after heat treatment (hemoglobin [3]; no stabilizer (None)): ≈ 0%
Haptoglobin activity maintained after heat treatment (hemoglobin [3]; with stabilizer, 60° C. and 10 hours): 95%
Number of dead (rabbits [5]; [7]): 0
Number of survival (rabbits [5]; [7]): 10
Number of dead (rabbits [5]; [8]): 1
Number of survival (rabbits [5]; [8]): 9
Histopathology (rabbits [6]; First group: haptoglobin for 14 days): no change was observed in its kidney, spleen and lung, and only slight narrowing of sinusoid and deposition of iron were observed in the liver
Prevention of renal troubles caused by hemoglobin; adverse effects (conclusion) (rabbits [6]; rabbits, Example 6): does not substantially bring about any adverse effects and has the excellent effect of preventing renal troubles caused by hemoglobin
Amount of urine (patient; [9]): increase
General symptoms of the patient (patient; [9]): gradually improved
Time to disappearance of blood pigments from the urine (patient; 250 ml of a 5% solution, drop-wise intravenously, person): blood pigments disappeared from the urine within several hours after haptoglobin administration
Adverse effect due to the administration (patient; even 6 months after recovery): No adverse effect
Adverse effect (mouse or rat and humans; 5% solution in isotonic sodium chloride, drop-wise intravenously, human adult): no adverse effect is observed at all
Toxicity (mouse or rat and humans; injected in large quantities into mouse, rat, humans): extremely low
Adverse effects on injection in large quantities (mouse or rat and humans; mouse or rat and humans): no adverse effects
Residual hemoglobin-binding capacity of haptoglobin after heat treatment (hemoglobin [4]; no stabilizer (None)): 0%

Compound: Example 2 before treatment: haptoglobin solution of Example 2 before the treatment with the ion exchanger
Hypotensive activity [1]: 12.0%

Compound: Experiment 4: haptoglobin solution by the method of Example 1 with CM-cellulose, non-adsorbed fraction, 0.05 M phosphate buffer (pH 7.0)
Hemoglobin-binding capacity (hemoglobin [2]): 0.61 mg hemoglobin/mg haptoglobin
LD50 (Mice): ≥ 11700 mg/kg
LD50 (Rats): ≥ 10500 mg/kg
Hypotensive activity [1]: 9.8%
HB-Ag (HB-Ag): Negative

Residual hemoglobin-binding capacity of haptoglobin after heat treatment (hemoglobin [3]; stabilizer amount 2.25%): 20%
Residual hemoglobin-binding capacity of haptoglobin after heat treatment (hemoglobin [3]; stabilizer amount 5%): 35%
Residual hemoglobin-binding capacity of haptoglobin after heat treatment (hemoglobin [3]; stabilizer amount 10%): 70%
Residual hemoglobin-binding capacity of haptoglobin after heat treatment (hemoglobin [3]; stabilizer amount 15%): 95%
Residual hemoglobin-binding capacity of haptoglobin after heat treatment (hemoglobin [3]; stabilizer amount 20%): 95%
Residual hemoglobin-binding capacity of haptoglobin after heat treatment (hemoglobin [4]; stabilizer amount 20%): 92%
Compound: NCC(=O)O [Glycine, glycine]

Compound: OC[C@@H](O)[C@@H](O)[C@H](O)[C@H](O)CO [Mannitol, mannitol]
Residual hemoglobin-binding capacity of haptoglobin after heat treatment (hemoglobin [3]; stabilizer amount 5%): 15%
Residual hemoglobin-binding capacity of haptoglobin after heat treatment (hemoglobin [3]; stabilizer amount 7%): 40%
Residual hemoglobin-binding capacity of haptoglobin after heat treatment (hemoglobin [3]; stabilizer amount 10%): 55%
Residual hemoglobin-binding capacity of haptoglobin after heat treatment (hemoglobin [3]; stabilizer amount 15%): 80%
Residual hemoglobin-binding capacity of haptoglobin after heat treatment (hemoglobin [3]; stabilizer amount 20%): 85%
Residual hemoglobin-binding capacity of haptoglobin after heat treatment (hemoglobin [4]; stabilizer amount 20%): 85%

Compound: hemoglobin
Number of dead (rabbits [5]; [10]): 7
Number of survival (rabbits [5]; [10]): 3
Histopathology (rabbits [6]; Second group: hemoglobin for 6 days): marked deposition of iron was observed from proximal tuble to collecting tube of the kidney, thinning of renal epithelial cells was observed, propagation of reticular cells was observed in the spleen, and marked narrowing of sinusoid and deposition of iron were observed in the liver

Compound: OC[C@@H](O)[C@@H](O)[C@H](O)[C@@H](O)CO [Sorbitol, sorbitol]
Residual hemoglobin-binding capacity of haptoglobin after heat treatment (hemoglobin [4]; stabilizer amount 20%): 76%

Residual hemoglobin-binding capacity of haptoglobin after heat treatment (hemoglobin [3]; stabilizer amount 15%): 50%
Residual hemoglobin-binding capacity of haptoglobin after heat treatment (hemoglobin [3]; stabilizer amount 20%): 75%
Residual hemoglobin-binding capacity of haptoglobin after heat treatment (hemoglobin [4]; stabilizer amount 20%): 83%
Compound: C[C@H](N)C(=O)O [Alanine, alanine]

Residual hemoglobin-binding capacity of haptoglobin after heat treatment (hemoglobin [4]; stabilizer amount 20%): 68%
Compound: OC[C@H]1O[C@@](CO)(O[C@H]2O[C@H](CO)[C@@H](O)[C@H](O)[C@H]2O)[C@@H](O)[C@@H]1O [Sucrose, sucrose]

Compound: Example 2: sterile aqueous haptoglobin solution from Cohn fraction IV, heated with 20% mannitol, purified on GE Cellulose (guanidoethyl cellulose)
Hemoglobin-binding capacity (hemoglobin [2]): 0.68 mg hemoglobin/mg haptoglobin
LD50 (Mice): ≥ 12000 mg/kg
LD50 (Rats): ≥ 10000 mg/kg
Hypotensive activity [1]: 6.0%
HB-Ag (HB-Ag): Negative
